Test results from PMC6959147 (2019).

B1: scFv-yeast clone 3_14 (scFv, V domains shown)
VH: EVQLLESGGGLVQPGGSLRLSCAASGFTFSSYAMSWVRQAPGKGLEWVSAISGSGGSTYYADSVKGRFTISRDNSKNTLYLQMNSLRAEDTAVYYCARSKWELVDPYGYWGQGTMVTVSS
VL: NFMLTQPHSVSESPGKTITISCTRSSGSIAGNYVQWYQQRPGSAPIIVIYEDNQRPSGVPDRFSGSIDSSSNSASLTISRLKTEDEADYYCQSYEASNVVFGGGTKLTVL
B2: scFv-yeast clone 10_3 (scFv, V domains shown)
VH: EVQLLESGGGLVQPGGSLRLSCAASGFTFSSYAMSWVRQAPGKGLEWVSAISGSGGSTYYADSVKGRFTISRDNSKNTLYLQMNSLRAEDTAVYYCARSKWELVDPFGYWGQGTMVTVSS
VL: NFMLTQPHSVSESPGKTITISCTRSSGSIAGNYVQWYQQRPGSAPIIVIYEDNQRPSGVPDRFSGSIDSSSNSASLTISRLKTEDEADYYCQSYEASNVVFGGGTKLTVL
B3: scFv-yeast clone 3_7 (scFv, V domains shown)
VH: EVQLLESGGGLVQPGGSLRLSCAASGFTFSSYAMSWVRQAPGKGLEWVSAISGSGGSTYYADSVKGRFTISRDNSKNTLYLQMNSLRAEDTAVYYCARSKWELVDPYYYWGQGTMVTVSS
VL: NFMLTQPHSVSESPGKTITISCTRSSGSIAGNYVQWYQQRPGSAPIIVIYEDNQRPSGVPDRFSGSIDSSSNSASLTISRLKTEDEADYYCQSYEASNVVFGGGTKLTVL
B4: scFv-yeast clone 3_3 (scFv, V domains shown)
VH: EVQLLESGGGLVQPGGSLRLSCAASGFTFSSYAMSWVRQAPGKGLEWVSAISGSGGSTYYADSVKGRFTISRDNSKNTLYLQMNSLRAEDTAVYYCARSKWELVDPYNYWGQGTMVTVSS
VL: NFMLTQPHSVSESPGKTITISCTRSSGSIAGNYVQWYQQRPGSAPIIVIYEDNQRPSGVPDRFSGSIDSSSNSASLTISRLKTEDEADYYCQSYEASNVVFGGGTKLTVL
B5: scFv-yeast clone 3_17 (scFv, V domains shown)
VH: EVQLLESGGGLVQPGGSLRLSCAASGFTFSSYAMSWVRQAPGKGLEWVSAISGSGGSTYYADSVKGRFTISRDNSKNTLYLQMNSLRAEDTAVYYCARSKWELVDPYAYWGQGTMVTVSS
VL: NFMLTQPHSVSESPGKTITISCTRSSGSIAGNYVQWYQQRPGSAPIIVIYEDNQRPSGVPDRFSGSIDSSSNSASLTISRLKTEDEADYYCQSYEASNVVFGGGTKLTVL
B6: wild type anti-PD-L1 scFv PD-L1_1 displayed on yeast (scFv, V domains shown)
VH: not shown
VL: NFMLTQPHSVSESPGKTITISCTRSSGSIAGNYVQWYQQRPGSAPIIVIYEDNQRPSGVPDRFSGSIDSSSNSASLTISRLKTEDEADYYCQSYEASNVVFGGGTKLTVL
B7: scFv-yeast clone 10_12 (scFv, V domains shown)
VH: not shown
VL: NFMLTQPHSVSESPGKTITISCTRSSGSIAGNYVQWYQQRPGSAPIIVIYEDNQRPSGVPDRFSGSIDSSSNSASLTISRLKTEDEADYYCQSYEASNVVFGGGTKLTVL
B8: mAb 10_3 (IgG4 converted from scFv 10_3) (antibody, V domains shown)
VH: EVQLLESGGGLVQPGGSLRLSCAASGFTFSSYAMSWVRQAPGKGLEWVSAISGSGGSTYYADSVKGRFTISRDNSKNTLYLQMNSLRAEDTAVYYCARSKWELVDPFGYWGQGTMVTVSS
VL: NFMLTQPHSVSESPGKTITISCTRSSGSIAGNYVQWYQQRPGSAPIIVIYEDNQRPSGVPDRFSGSIDSSSNSASLTISRLKTEDEADYYCQSYEASNVVFGGGTKLTVL

target: recombinant human PD-L1, Fc-tagged (rhPD-L1-Fc) (human, UniProt Q9NZQ7 19-238); assay: FACS
Sequence (Q9NZQ7 19-238): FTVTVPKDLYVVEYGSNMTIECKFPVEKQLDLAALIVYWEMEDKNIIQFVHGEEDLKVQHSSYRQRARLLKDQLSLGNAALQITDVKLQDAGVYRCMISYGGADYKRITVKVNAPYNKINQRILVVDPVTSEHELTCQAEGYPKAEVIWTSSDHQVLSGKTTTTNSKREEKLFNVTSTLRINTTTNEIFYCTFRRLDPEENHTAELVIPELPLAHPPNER

B1 and B2 are within 1.5-fold of each other in Kd: 580 pM for the first, 500 pM for the second.

B3 and B4 are within 1.5-fold of each other in Kd: 680 pM for the first, 600 pM for the second.

Compared with B5, B6 is 9.9-fold higher in Kd: 460 pM for the first, 4550 pM for the second. The first binds more tightly here.

With B7 the Kd was 730 pM.

target: PD-L1 expressed in its native conformation on activated human PBMCs (human (endogenous in hPBMCs), UniProt Q9NZQ7 19-290); assay: FACS
Sequence (Q9NZQ7 19-290): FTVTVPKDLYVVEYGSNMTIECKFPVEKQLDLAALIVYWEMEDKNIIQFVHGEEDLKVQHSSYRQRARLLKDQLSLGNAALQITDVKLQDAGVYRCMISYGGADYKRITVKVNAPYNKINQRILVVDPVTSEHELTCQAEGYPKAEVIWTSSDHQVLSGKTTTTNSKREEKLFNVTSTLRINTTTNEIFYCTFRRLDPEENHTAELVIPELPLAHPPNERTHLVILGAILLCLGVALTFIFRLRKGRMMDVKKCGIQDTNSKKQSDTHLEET

B8 was tested, and the Kd was 2000 pM.
